From ChEMBL document CHEMBL1132473
One block for each molecule: values may come before it.

Experiments:
[1] = molecular target: 4-aminobutyrate aminotransferase, mitochondrial (Sus scrofa) (UniProt P80147)
Description: (§1) Compound was tested for the inhibition of Gamma-amino-N-butyrate transaminase (GABA-AT)

[2] = system: N[C@H]1C=C[C@@H](C(=O)O)C1
[3] = system: N[C@@H]1C=C[C@@H](C(=O)O)C1
[4] = system: N[C@@H]1C=C[C@H](C(=O)O)C1
Description: as §1

Chain of 4-aminobutyrate aminotransferase, mitochondrial (Sus scrofa), P80147 (P80147 whole entry): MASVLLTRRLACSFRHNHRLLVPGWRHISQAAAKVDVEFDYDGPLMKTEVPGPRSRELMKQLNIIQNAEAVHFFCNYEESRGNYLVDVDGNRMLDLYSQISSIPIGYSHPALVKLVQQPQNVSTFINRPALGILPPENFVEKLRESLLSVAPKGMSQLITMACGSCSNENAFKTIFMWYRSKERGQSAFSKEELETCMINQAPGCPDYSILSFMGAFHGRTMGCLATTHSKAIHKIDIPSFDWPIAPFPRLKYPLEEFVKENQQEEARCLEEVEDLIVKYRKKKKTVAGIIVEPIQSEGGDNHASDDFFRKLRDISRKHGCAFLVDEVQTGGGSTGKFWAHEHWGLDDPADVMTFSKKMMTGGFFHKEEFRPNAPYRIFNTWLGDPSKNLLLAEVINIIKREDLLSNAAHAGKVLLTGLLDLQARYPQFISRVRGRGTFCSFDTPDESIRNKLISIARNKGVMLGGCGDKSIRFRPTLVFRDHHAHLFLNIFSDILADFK
Chain of 4-aminobutyrate aminotransferase, mitochondrial (Sus scrofa) (P80147 whole entry): as above
Description for NC1C=CC(C(=O)O)C1: as §1
Description for N[C@@H]1CC=C(C(=O)O)C1: as §1

k cat [1]: 0.195 s⁻¹
Molecule: N[C@@H]1C=C[C@H](C(=O)O)C1

k cat [1]: 0.625 s⁻¹
Molecule: N[C@@H]1CC=C(C(=O)O)C1

Molecule: 4-aminobutyrate aminotransferase, mitochondrial (Sus scrofa), P80147
Km [2]: No turn over
Km (N[C@H]1CC=C(C(=O)O)C1): No turn over
Km [3]: No turn over
Km (N[C@@H]1CC=C(C(=O)O)C1): 1600 µM
Km (NC1C=CC(C(=O)O)C1): 2300 µM
Km [4]: 100 µM

k cat [1]: 0.667 s⁻¹
Molecule: NC1C=CC(C(=O)O)C1 (racemic)
